Data on one molecule can be found in paper PMC2705800, “Nucleocytoplasmic Shuttling of the TACC Protein Mia1p/Alp7p Is Required for Remodeling of Microtubule Arrays during the Cell Cycle” (PLoS ONE, 2009).

The assay concerns the target T1, MBP-Mia1p-MutNES4 (S. pombe, UniProt Q9URY2 1-474, L461A (AVAAMDQANA; Leu/Ile residues 461, 463, 468 and 470) | I463A (AVAAMDQANA; …).
T1 construct: Cloned into the pAD2a vector (MBP upstream of the multiple cloning site), as m1; also called Mia1-MutNES4; NES mutant version of Mia1p; source: E. coli BL21 (DE3) carrying the pG-KJE8 chaperone plasmid; not shown: MBP, N-terminal, kept
T1 sequence (looked up): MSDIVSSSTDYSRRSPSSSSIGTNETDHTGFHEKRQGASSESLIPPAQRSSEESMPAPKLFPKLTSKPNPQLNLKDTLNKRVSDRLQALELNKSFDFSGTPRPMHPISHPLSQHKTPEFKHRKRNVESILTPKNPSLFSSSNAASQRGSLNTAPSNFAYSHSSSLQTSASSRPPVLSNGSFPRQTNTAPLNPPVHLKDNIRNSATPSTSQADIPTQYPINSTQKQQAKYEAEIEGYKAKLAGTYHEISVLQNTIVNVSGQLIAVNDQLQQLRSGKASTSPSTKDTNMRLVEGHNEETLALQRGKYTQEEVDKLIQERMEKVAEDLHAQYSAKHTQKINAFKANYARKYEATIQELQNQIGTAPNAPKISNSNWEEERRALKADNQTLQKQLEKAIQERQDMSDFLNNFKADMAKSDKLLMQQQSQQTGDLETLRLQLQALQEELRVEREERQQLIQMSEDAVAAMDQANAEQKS
Nature of the assay: pull-down; MBP fusion held on amylose resin, incubated 1 hour at 4°C with soluble total lysate of Alp14p-13myc expressing mia1Δ S. pombe cells; Buffer A (20 mM Tris-HCl pH 7.4, 400 mM NaCl, 1 mM EDTA, 10 mM β-mercaptoethanol); washed 3 times; Alp14p-myc detected with anti-myc antibody, MBP proteins by Coomassie. The settings on record: one partner purified.

B1: Alp14p-13myc (natural protein, S. pombe, UniProt O94534 1-809, looked up)
chain: MSQDQEEDYSKLPLESRIVHKVWKVRLSAYEECSKSFSLSADGSDNCFELWNNQSELWKSVLTDSNVAAQEAGTAAFVAYCRFSDPSHLLKAREISVLSISEKCLTSPRAGTRENALEALMLLVEADSAAPVIESIIPSLSARSPKVIASNVAAIASLVEQFGAKVIPSKMIIPHISNLFGHADKNVRKEASRLTVNIYRWTGDPLKDLLFKDLRPVQTKELESLFAELPTEPPKQTRFLKSQQPTSEPNVETQVEEQPALENEESEPEPSDDQFDLVEEVDVLPNVDPNLETLMASSKWKDRKEALDKLLPVLSQPKIKDNDFFNLVAILTKSVSKDANIMVVINAAHCIQAMAKGLRSNFSKYASTSINALLERSKEKKANVIESLSSAMDAVLATSSLDDLAELIASFAGNKNPQIKSSCFSLFSRSFSNMTSLPSKFTVDTCAKACVPGVSDTFEPVRSAAAEALGVLMKLVGERAINQYLSPLDDIRKSKIRSFYETATVKAKAPTKKSKVKPSKQEESKVVVPSNAKAVKKSVVPSSPVVPSPRKATNKSLSMDVSKGNAFENGPLLPRPTTRPVSRGLSRGTSSSLQQKVKASTPLNSGALNETVQNLKNMELDDPAPQPAKHSRVDRYEHPKVLEDNDSTISSLESLKRENEELREQLKVEHEENISMQKQLSELKGELNTLRSARKASPIGDRKPAFMRRANTDFLELSTSPSFQRSVREFEPTRPKLYSSIDVNQRSPLASAKTNGNFTFHAELPRSPFSSRANNINPDWTKAIDLAAKLKQKITEMKQTDQRHQGLIH
notes: Alp14p, TOG protein of Schizosaccharomyces pombe, partner of Mia1p/Alp7p; also called Alp14p-myc; Alp14p/TOG; source: S. pombe mia1Δ cells expressing Alp14p-13myc, total cell lysate
With B1, the “ratio of Alp14p-myc pulled down, against MBP-Mia1p” value was 0.26 ratio to MBP-Mia1p.
